The data set in a line: label from the status in PepcDB records.

As for “MKIESLDLPDEIKRFYENSGILELYPPQAEAVEKGLLEGKNLLAAIPTASGKTLLAELAMLKSVLNGGKALYIVPLRALASEKFRRFQEFSVLGMRVGISTGDYDRRDEGLGINDIIVATSEKTDSLLRNETAWMQEISVVVADEVHLIDSPDRGPTLEITLSKLRRMNPSCQVLALSATVGNADELAAWLDAELVLSEWRPTDLMEGVFYNGIFYCKDKEKPVGQPTKDEAVNLVLDTIKEGGQCLVFESSRKNCMGFAKKAVSAVKKTLSNEDRETLAGIADEIIENSETDVSSVLATCVRSGTAFHHAGLTTPLRELVENGFREGRIKIISSTPTLAAGLNLPARRVIIRSYRRYSSDSGMQPIPVLEYKQMAGRAGRPRLDPYGEAVLLAKSYEEFVFLFEKYIEAGAEDIWSKLGTENALRTHILSTISNGFARTREELMDFLEATFFAFQYSNFGLSAVVDECLDFLRREGMLEKDPDALVSTVFGKLVSRLYIDPLSAALIAKGLREAGTLTELTLLHLICSTPDMRLMYMRSQDYQEVNDYVMAHAGEFSKVPNPFNIAEYEWFLGEVKTSLLLMDWIHEKPENEICLKFGIGEGDIHATADIAEWIMHVTAQLAGLLDLKGAKEASELEKRIRYGAAPELMDLLDIRSVGRVRARKLYEAGFKSTAELAAASPEHIAVLVGPKITERIFKQIGRREAVSEFSDIEPLEKGSSDGQRTISDY”, the protein production entry is reported as “failed”.

On to “MKIFIVGSTGRVGKSLLKSLSTTDYQIYAGARKVEQVPQYNNVKAVHFDVDWTPEEMAKQLHGIDAIINVSGSGGKSLLKVDLYGAVKLMQAAEKAEVKRFILLSTIFSLQPEKWIGAGFDALKDYYIAKHFADLYLTKETNLDYTIIQPGALTEEEATGLIDINDEVSASNTIGDVADTIKELVMTDHSIGKVISMHNGKTAIKEALESLLEHHHHHH”, for which the protein production result is “not failed”.

“MKIGIIGAGFVARAIAKLALQNGHQVMLSNSRDPQSLFSLRPMIGCDIGTATQAALFGDIIVIAVPFTAIDKLPEQALQGKSVIDAVNYYTERDGKVAALDTRSTTTSELLAGYLPGAKITKAFNAITMTQLERDGLPAGSAHRRALPLAGDHEQEKTIVAELYDAFGFDVVDAGKLSEGWRFERNMPSYCVRMTKAELTTALALSSRLEHHHHHH”: the protein production result is on record as “not failed”.

As for “MKIGIIGVGKMASAIIKGLKQTPHELIISGSSLERSKEIAEQLALPYAMSHQDLIDQVDLVILGIKPQLFETVLKPLHFKQPIISMAAGISLQRLATFVGQDLPLLRIMPNMNAQILQSSTALTGNALVSQELQARVRDLTDSFGSTFDISEKDFDTFTALAGSSPAYIYLFIEALAKAGVKNGIPKAKALEIVTQTVLASASNLKTSSQSPHDFIDAICSPGGTTIAGLMELERLGLTATVSSAIDKTIDKAKSL”, the protein production entry is given as “not failed”.

As for “MKIGVLGLQGAVREHVRAIEACGAEAVIVKKSEQLEGLDGLVLPGGESTTMRRLIDRYGLMEPLKQFAAAGKPMFGTCAGLILLAKRIVGYDEPHLGLMDITVERNSFGRQRESFEAELSIKGVGDGFVGVFIRAPHIVEAGDGVDVLATYNDRIVAARQGQFLGCSFHPELTDDHRLMQYFLNMVKEAKMASSLK”, the protein production result is on record as “not failed”.

Regarding “MKIIELPIEFEFNGQKQCIYPSLIILHNELTLVDTGYPSFLPLIENAILKHGYEMKNLKNIIITHYDDDHIGAVYDFKVKYPNINVIASEIESNYINGDIKSERLVQAEEMLERMPNEEKEFGKWFIQQLKNIKHISVDEKVHDGQMILNNECQVVATPGHTSGHISLYFPNLDCVITGDAAVQENRELVIANPNFCLDIEKAKQSLNRIKSFKAAQYYCYHGGKLTV”, the protein production result is recorded as “failed”.

For the sequence “MKIIRTRQRPFMVIVDVVLTVLAWVGLLYLLVRGLIPLLDSHEGPRIEAGMLDALTTLQFYAWVAVLNAVLLISWARYRQRRNKSYPPRLPAPVVDDKRLSETFKLNDATFAQMRQPGTMIVHNDEEGGISHVTTQFYRILPEDQQHPPLRVEPPPRVIHLRSEGDEGKKTGED”, the protein production result is “failed”.

Turning to “MKIKACIFDMDGTLVNSIMDIAFSMNSALSNLGYSKIELSKFNALVGRGFNKFVIDTLKLLSLEHDNPNLQEKLYKEFVKEYNKNLSFQTKPYENIKPLLETMNKLNIPIGILSNKNHEELINLVKNIFGNILFFEIRGYSKNFPPKPDPENALDMILELNAQKEEIAYIGDSDVDMLTALNAGFMPIGVSWGFRSVQELKESGAKHIIHNPLELLDLIK”, the protein production entry is recorded as “failed”.

With “MKIKAVGAYSAKQPLEPMDITRREPGPNDVKIEIAYCGVCHSDLHQVRSEWAGTVYPCVPGHEIVGRVVAVGDQVEKYAPGDLVGVGCIVDSCKHCEECEDGLENYCDHMTGTYNSPTPDEPGHTLGGYSQQIVVHERYVLRIRHPQEQLAAVAPLLCAGITTYSPLRHWQAGPGKKVGVVGIGGLGHMGIKLAHAMGAHVVAFTTSEAKREAAKALGADEVVNSRNADEMAAHLKSFDFILNTVAAPHNLDDFTTLLKRDGTMTLVGAPATPHKSPEVFNLIMKRRAIAGSMIGGIPETQEMLDFCAEHGIVADIEMIRADQINEAYERMLRGDVKYRFVIDNRTLTD”, the protein production result is “not failed”.

For “MKIKTSYLIYAVIATVFAGLSMVTDIFEKGNFEAIFSNLGMIIGLSILAYILITMAKSFIDLVINELKN”, the protein production entry is “failed”.

Consider “MKILFIKLSALGDVLASTPLFASTKAEHPDWFVGHVVARPYADATRNNAHVDAQFVVDSPLSKGLAEKIGVAVGIWRYVLRERYDIAVVLHRSFVLQLICRLALVKKVVGYEGPFSFILNHSIPFSMRGNRSNLELRLLKSAGIIRDEKKKLRFDIDFGNVDPSRLRALPDAFIAVNAGGGNADAHAANKLWPAEHYGALIKQLPLPAVMLGHGAADERIRDRVAATGATFVDLIGKTNLDETAVVLRRSSLYVGNDSALLYLAASLGVTTIGIYGPTDPAAFSPLGANNLWLSGKTSCAPCYSSFDGIGGRMYTCADNICMKAVTVESVSERIHAALHQDQNLQVAGPDVVGSGQGGAASEAGDRARAHARAGHQAVGDGGFAVPVSRRPPVGARVSGRDD”, for which the protein production entry was “failed”.

For the sequence “MKILKKIFQVIVKIINHCVPVDSRSLYFIPHPNCRTDKYDIINYSSDNVLVLLNYLLKKDSAEYYKIYVEIYDSSRISEYQEYIYGINPNIRCTFLCACVGRFFFNKVSFKDMLYAFFCFCRASKCFTATFYYDFSFKKRSQQIICLGYYTPFKDDYHMGDHSYDKFRNTTCNSFDYSIATSCLSARIISIDCGISYDKFKVLGFPRNDLLISKNNCNVIKREISKFAGYDVTKYIVYTPTFRDYETVTEGNLRSILGYVDCDLLKLSKILLKFNAALILKLHPLQNKTVLKKDLPKGILVFEQTYKYGLYDLLSFSDGMITDYTSTYFDFLLVNKPVIFNFYDIEEYRRVRGFSFEPIEFFCAGDIVYNYNELIDAVMGLLAGKDIHAEHRRHISLLMNQFQDDNSTKRICDIFLNEILEHHHHHH”, the protein production result was “failed”.

Turning to “MKILVDENMPYARELFSRLGEVKAVPGRPIPVEELNHADALMVRSVTKVNESLLSGTPINFVGTATAGTDHVDEAWLKQAGIGFSAAPGCNAIAVVEYVFSALLMLAERDGFSLRDRTIGIVGVGNVGSRLQTRLEALGIRTLLCDPPRAARGDEGDFRTLDELVQEADVLTFHTPLYKDGPYKTLHLADETLIRRLKPGAILINACRGPVVDNAALLARLNAGQPLSVVLDVWEGEPDLNVALLEAVDIGTSHIAGYTLEGKARGTTQVFEAYSAFIGREQRVALETLLPAPEFGRITLHGPLDQPTLKRLAHLVYDVRRDDAPLRKVAGIPGEFDKLRKNYLERREWSSLYVMCDDETAAALLCKLGFNAVHHPAH”, the protein production entry is listed as “not failed”.

Take “MKILVTGGTGLIGRHFISAFNHKYQFTVLTRNTQKAQLYLPKNIEFIEQLPEQNYFDVIINLAGEPIIDKRWSRAQKENICQSRWNITEKIVEMIARATDKPSCLISGSAIGYYGETGAVSTHEDAKVTHSDFAHTLCQKWEELALKAKEHCRVVLLRTGIVLASDGGALEKMRLPFSLGLGGKLGNGQQYMSWIHIDDMIHAIHFSVQIKCIEGAINCTSPKAITNEVFTKALGKEVNRPTWFSVPAFVLNILMGQGAELLLTSQNIYPQKLLSHGFHFNHSDIEHALADLMTES”: the protein production entry was “failed”.

Take “MKILYPTDFSEVSQKALTECVPSIILGIGEGSELILLHVVDITASEIGALELAEVDKEELNNLASQLREKGIKVKPIVRIGIPSLEISEVAKEENVDLIIIPSKGENILRQMLLGSTASNLARITHKPVLLLRYEVENGEIKSLQDCSRIFEKPLVALDLSKCSEKIIETIKDLPGVREAVLFHVVDYGKVEELENNIKNAKEKLSKYGKLLPWKTKIEVQAGIASKGIIGAAIDNNVTLVVIGKKGRSVLKDLLLGSTAERVIRDCKLPTLLIPCE”: the protein production result is given as “failed”.

For “MKINQLWQEPKQRSKRYYLLDNIFSAITHGIGFGLAIAGLVVLIVKAAHTGSPMRIVTFTIYGACLVLLYLFSTLYHSLVFTRAKNVFQIFDHSSIFLLIAGSYTPYSLVAIGGVWGWTLFGLIWGLTIFGIIYYVFNRGKHVIFDTILYVAMGWLVILSGPYLYVRLSSTGFWLLVGGGIAYTIGAILFSMRSVPFIHTIWHLFIILGSILMYFSVLLYV”, the protein production result is on record as “failed”.

“MKIPKIYVEGELNDGDRVAIEKDGNAIIFLEKDEEYSGNGKLLYQVIYDDLAKYMSLDTLKKDVLIQYPDKHTLTYLKAGTKLISVPAEGYKVYPIMDFGFRVLKGYRLATLESKKGDLRYVNSPVSGTVIFMNEIPSERANYVFYMLEE”: the protein production entry was “not failed”.

“MKIRDLLKARRGPLFSFEFFPPKDPEGEEALFRTLEELKAFRPAFVSITYGAMGSTRERSVAWAQRIQSLGLNPLAHLTVAGQSRKEVAEVLHRFVESGVENLLALRGDPPRGERVFRPHPEGFRYAAELVALIRERYGDRVSVGGAAYPEGHPESESLEADLRHFKAKVEAGLDFAITQLFFNNAHYFGFLERARRAGIGIPILPGIMPVTSYRQLRRFTEVCGASIPGPLLAKLERHQDDPKAVLEIGVEHAVRQVAELLEAGVEGVHFYTLNKSPATRMVLERLGLRPASGQP”: the protein production result is “not failed”.

Regarding “MKIRFISLASGSSGNCYYLGTEKYGILIDAGIGIRTIKKSLKDINVTMDSIRAVFITHDHADHIKAVGHLGEKLNIPVYTTARVHAGINKSYCMTEKLHGSVRYLEKEEPMLLEDFRIESFEVPHDGTDNVGYCIEIDGKVFSFLTDLGEITPTAARYICKAHYLIIEANYDEEMLRMGPYPTYLKERISSKTGHMSNIDTANFLAENIMEHLRYIWLCHLSKDNNHPELAYKTVEWKLKSKGIIVGKDVQLLALKRNTPSELYEFE”, the protein production entry is “failed”.

For the sequence “MKIRILGSGTSTGVPEIGCTCAVCTSKDPRDCRLRTSALVYTDDATILLDCGPDFREQMLRVPFGKIDAVLISHEHYDHVGGLDDLRPFCRFGEVPIYAETYTAERLRSRMPYCFVEHSYPGVPNIPLREIEPNRPFLVNHTEVLPLRVMHGKLPILGYRIGKLGYITDMLTMPDESFEQLQGIEVLVMNALRIAPHNTHQSLSEALEAVKRIGAKETWLIHMSHHIGLQADVEKQLPPHVHFAFDGLELECLEHHHHHH”, the protein production result is listed as “failed”.

In the case of “MKIRTTLTLQYAGITAAVFFAFVIAVYYVSEHSRSNAFFRNLQSEAITKAHLFLNNQVDAKTMQSIYLNNQKFINEVEVAVYTTDFKILYHDALQNDIVKETPEMVKRILKRKNISFYVDEYQAIGLVYPFEGQYYIVTAAAYDGYGYANRDALRNMLILLFIGGLSVLAIVGYILSRSTLKPIRNIVREAEKITASHIDKRLPVKNEQDELGELSITFNALLERLEKSFNSQKMFVSNVSHELRTPMAALTAELDLALLKERTSGQYQAAIGNALQDSRRIINLIDGLLNLAKADYQSEQITMEEVRLDELLLDARELVLKAHPDYHIELVFEQEAEEDNVLTVIGNSYLLTTAFVNLVENNCKYSSNRTSSVLIAYWEQWAIIRLSDNGVGMSDADKENLFKLFYRGENKNIAPGNGIGMVLTQKIIHLHKGELTVSSHKDEGTTFVVKLPHI”, the protein production result is “failed”.
